This is an account of results in patent US20160291016.

In the series the target is T1, phosphatidylinositol(4) phosphate 5 kinase type 1 gamma (PIPK1γ) of mouse osteoblasts, O70161.
T1 chain: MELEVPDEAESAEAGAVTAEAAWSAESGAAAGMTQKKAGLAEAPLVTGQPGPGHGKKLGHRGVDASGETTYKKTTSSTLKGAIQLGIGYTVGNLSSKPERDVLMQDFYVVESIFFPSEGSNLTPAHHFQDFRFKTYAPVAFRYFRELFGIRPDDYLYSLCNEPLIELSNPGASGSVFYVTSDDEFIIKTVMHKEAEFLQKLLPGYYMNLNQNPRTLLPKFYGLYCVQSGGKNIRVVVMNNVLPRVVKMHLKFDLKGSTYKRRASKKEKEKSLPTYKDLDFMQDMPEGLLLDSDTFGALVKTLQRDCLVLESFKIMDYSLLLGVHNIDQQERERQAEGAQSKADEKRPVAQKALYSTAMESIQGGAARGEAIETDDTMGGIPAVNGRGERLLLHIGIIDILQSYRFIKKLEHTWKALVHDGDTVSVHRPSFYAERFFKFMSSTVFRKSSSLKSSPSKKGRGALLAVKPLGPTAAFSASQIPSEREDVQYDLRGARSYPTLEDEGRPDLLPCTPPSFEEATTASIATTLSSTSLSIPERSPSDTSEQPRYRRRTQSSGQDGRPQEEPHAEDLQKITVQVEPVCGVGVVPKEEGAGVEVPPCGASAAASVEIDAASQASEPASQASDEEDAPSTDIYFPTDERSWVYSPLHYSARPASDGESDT

B1: protein tyrosine phosphatase µ (PTPµ) of mouse osteoblasts (protein)
chain: ETFSGGCLFDEPYSTCGYSQADEDDFNWEQVNTLTKPTSDPWMPSGSFMLVNTSGKPEGQRAHLLLPQLKENDTHCIDFHYFVSSKSNAAPGLLNVYVKVNNGPLGNPIWNISGDPTRTWHRAELAISTFWPNFYQVIFEVVTSGHQGYLAIDEVKVLGHPCTRTPHFLRIQNVEVNAGQFATFQCSAIGRTVAGDRLWLQGIDVRDAPLKEIKVTSSRRFIASFNVVNTTKRDAGKYRCMICTEGGVGISNYAELVVKEPPVPIAPPQLASVGATYLWIQLNANSINGDGPIVAREVEYCTASGSWNDRQPVDSTSYKIGHLDPDTEYEISVLLTRPGEGGTGSPGPALRTRTKCADPMRGPRKLEVVEVKSRQITIRWEPFGYNVTRCHSYNLTVHYGYQVGGQEQVREEVSWDTDNSHPQHTITNLSPYTNVSVKLILMNPEGRKESQELTVQTDEDLPGAVPTESIQGSAFEEKIFLQWREPTQTYGVITLYEITYKAVSSFDPEIDLSNQSGRVSKLGNETHFLFFGLYPGTTYSFTIRASTAKGFGPPATNQFTTKISAPSMPAYEFETPLNQTDNTVTVMLKPAQSRGAPVSVYQIVVEEERPRRTKKTTEILKCYPVPIHFQNASILNSQYYFAAEFPADSLQAAQPFTIGDNKTYNGYWNTPLLPHKSYRIYYQAASRANGETKIDCVRVATKGAVTPKPVPEPEKQTDHTVKIAGVIAGILLFVIIFLGVVLVMKKRKLAKKRKETMSSTRQEMTVMVNSMDKSYAEQGTNCDEAFSFMGTHNLNGRSVSSPSSFTMKTNTLSTSVPNSYYPDETHTMASDTSSLAQPHTYKKREAADVPYQTGQLHPAIRVADLLQHITQMKCAEGYGFKEEYESFFEGQSAPWDSAKKDENRMKNRYGNIIAYDHSRVRLQMLEGDNNSDYINGNYIDGYHRPNHYIATQGPMQETIYDFWRMVWHENTASIIMVTNLVEVGRVKCCKYWPDDTEIYKDIKVTLIDTELLAEYVIRTFAVEKRGIHEIREIRQFHFTGWPDHGVPYHATGLLGFVRQVKSKSPPNAGPLVVHCSAGAGRTGCFIVIDIMLDMAEREGVVDIYNCVRELRSRRVNMVQTEEQYVFIHDAILEACLCGDTSIPASQVRSLYYDMNKLDPQTNSSQIKEEFRTLNMVTPTLRVEDCSIALLPRNHEKNRCMDILPPDRCLPFLITIDGESSNYINAALMDSYKQPSAFIVTQHPLPNTVKDFWRLVLDYHCTSVVMLNDVDPAQLCPQYWPENGVHRHGPIQVEFVSADLEEDIISRIFRIYNASRPQDGHRMVQQFQFLGWPMYRDTPVSKRSFLKLIRQVDKWQEEYNGGEGRTVVHCLNGGGRSGTFCAISIVCEMLRHQRTVDVFHAVKTLRNNKPNMVDLLDQYKFCYEVALEYLNSG
As to B1, the “tyrosine phosphorylation of PIPK1γ (immunoprecipitation with PIPK1γ antibody, blot with phospho-tyrosine antibody)” value is reported as “Phosphorylation levels of PIPK1γ were higher in osteoblasts from PTPµ^-/- than in those from WT mice”.
